Laboratory results reported in patent US20140086916A1 (Merck Sharp & Dohme, published 2014).
Read-outs that look alike come from different tables or passages of the source. Values belong to the binder of their own block, whether it stands above or below them.

How the values were obtained:
FcγRIIA H = target: T1, FcγRIIA H (UniProt P12318 34-217, limits assumed); assay: fold change of the Table 12 affinities (reference row)
T1 construct: also called FcgRIIA H
T1 sequence (looked up): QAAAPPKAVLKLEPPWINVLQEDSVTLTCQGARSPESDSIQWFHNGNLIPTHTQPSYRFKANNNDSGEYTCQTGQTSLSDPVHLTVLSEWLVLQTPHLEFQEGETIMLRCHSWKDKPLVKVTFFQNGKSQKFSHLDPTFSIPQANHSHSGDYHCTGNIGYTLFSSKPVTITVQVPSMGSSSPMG
Protocol: (§1) Fcγ receptor binding assays were carried out as described (Shields, et al. (2001) J. Biol. Chem. 276:6591-6604) with minor modifications. High protein binding 96-well plates (Corning Costar) were coated with 100 μL per well of Fcγ receptor solutions in PBS at the following concentrations: 1 μg/mL for both FcγRI (R&D Systems) and FcγRIIa (Pichia pastoris produced), 2 μg/mL for FcγRIIb (P. pastoris produced), 0.8 μg/mL for FcγRIIIa-F158, and 0.4 μg/mL for FcγRIIIa-V158 (both P. pastoris produced). All Pichia pastoris produced receptors were expressed and purified as described (Li, et al. (2006) Nature Biotechnology 24:210-215). Monomeric antibody samples added to the FcγRI plate were serially diluted in assay diluent (1×PBS, 1% BSA, and 0.05% Tween20) and 100 μL, per well was added to the plate. Antibody samples prepared for the remaining receptors require a one hour dimerization step with half molar ratio of goat anti-human IgG F(ab′)2 F(ab′)2 that is conjugated with alkaline phosphatase for detection. These dimerized F(ab′)2/antibody complexes were also serially diluted and 100 μL per well were added to the remaining receptor plates and all plates were incubated for one hour at room temperature. FcγRI bound sample antibody was detected using the same goat anti-human IgG F(ab′)2 alkaline phosphatase conjugated F(ab′)2. Sample antibody binding was quantified by measuring excitation at 340 nm and emission at 465 nm after 18 hour incubation with SuperPhos, 4-MUP Fluorescence AP Substrate Detection System (Virolabs).

[1] = target: T2, FcγRIIb (Pichia pastoris produced) (UniProt P31994 43-217, limits assumed); assay: as above
T2 construct: also called FcgRIIB; CD32B
T2 sequence (looked up): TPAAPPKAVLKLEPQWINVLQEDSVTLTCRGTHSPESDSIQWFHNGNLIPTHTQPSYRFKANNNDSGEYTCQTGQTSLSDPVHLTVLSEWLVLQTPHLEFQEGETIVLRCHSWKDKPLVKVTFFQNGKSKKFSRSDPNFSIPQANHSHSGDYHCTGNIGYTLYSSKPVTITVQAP
Protocol: as §1

[2] = target: T3, FcγRIIIa-F158 (Pichia pastoris produced) (UniProt P08637 17-208, limits assumed); assay: as above
T3 construct: also called FcγRIIIA LF; FcgRIIIA LF
T3 sequence (P08637 17-208 limits assumed): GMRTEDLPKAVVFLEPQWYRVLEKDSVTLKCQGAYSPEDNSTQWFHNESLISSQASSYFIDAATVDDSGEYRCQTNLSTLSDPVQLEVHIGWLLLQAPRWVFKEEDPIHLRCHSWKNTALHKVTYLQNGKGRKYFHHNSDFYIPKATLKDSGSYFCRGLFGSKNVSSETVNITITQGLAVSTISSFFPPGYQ
Protocol: as §1

[3] = target: T4, FcγRIIIa-V158 (Pichia pastoris produced) (UniProt P08637 17-208, limits assumed); assay: as above
T4 construct: also called FcγRIIIA LV; FcgRIIIA LV
T4 sequence (P08637 17-208 F176V limits assumed): as the sequence (P08637 17-208 limits assumed) above, with F160V counted along it
Protocol: as §1

[4] = target: T2, FcγRIIb (Pichia pastoris produced); assay: ELISA-type plate assay, FcγR coated, antibody dimerized with AP-conjugated goat anti-human IgG F(ab')2, RFU readout
Protocol: as §1

[5] = target: T3, FcγRIIIa-F158 (Pichia pastoris produced); assay: as above
Protocol: as §1

[6] = target: T5, FcγRIIa (Pichia pastoris produced) (UniProt P12318 34-217, limits assumed); assay: as above
T5 construct: also called CD32A
T5 sequence (looked up): T1 sequence (looked up)
Protocol: as §1

[7] = target: T2, FcγRIIb (Pichia pastoris produced); assay: as above; remark: listed apart in the source
Protocol: as §1

[8] = target: T3, FcγRIIIa-F158 (Pichia pastoris produced); assay: as above; remark: listed apart in the source
Protocol: as §1

[9] = target: T5, FcγRIIa (Pichia pastoris produced); assay: as above; remark: listed apart in the source
Protocol: as §1

[10] = target: T3, FcγRIIIa-F158 (Pichia pastoris produced); assay: as above; remark: listed apart in the source
Protocol: as §1

FcγRI (R&D Systems) [11] = target: T6, FcγRI (R&D Systems) (UniProt P12314 16-288); assay: ELISA-type plate assay, FcγRI coated, monomeric antibody, detected with AP-conjugated goat anti-human IgG F(ab')2, RFU readout
T6 construct: Bought reagent, coated on the plate at 1 µg/mL; also called Fc gamma receptor I; CD64
T6 sequence (P12314 16-288 limits assumed): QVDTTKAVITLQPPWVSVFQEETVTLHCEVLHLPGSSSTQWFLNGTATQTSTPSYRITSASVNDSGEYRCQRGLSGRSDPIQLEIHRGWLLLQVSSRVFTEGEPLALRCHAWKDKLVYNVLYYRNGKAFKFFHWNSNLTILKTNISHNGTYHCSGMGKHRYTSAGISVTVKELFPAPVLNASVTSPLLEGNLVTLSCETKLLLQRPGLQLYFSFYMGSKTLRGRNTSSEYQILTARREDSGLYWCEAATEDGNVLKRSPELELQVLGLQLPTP
Protocol: as §1, with “These dimerized F(ab′)2/antibody complexes were also serially diluted and 100 μL per well were added to the remaining receptor plates and all plates were incubated for one hour at room temperature.” left out

FcγRI (R&D Systems) [12] = target: T6, FcγRI (R&D Systems); assay: summary of the FcγR ELISAs
Protocol: as §1

[13] = target: T3, FcγRIIIa-F158 (Pichia pastoris produced); assay: summary of the FcγR ELISAs
Protocol: as §1

[14] = target: T4, FcγRIIIa-V158 (Pichia pastoris produced); assay: summary of the FcγR ELISAs
Protocol: as §1

[15] = target: T2, FcγRIIb (Pichia pastoris produced); assay: fold change of the Table 12 affinities; Table 13 fold change computed from the Table 12 affinities
Protocol: as §1, with “These dimerized F(ab′)2/antibody complexes were also serially diluted and 100 μL per well were added to the remaining receptor plates and all plates were incubated for one hour at room temperature.” left out

[16] = target: T3, FcγRIIIa-F158 (Pichia pastoris produced); assay: ELISA on plate-coated receptor; antibody dimerized with anti-human IgG F(ab')2-AP; ELISA IC50, YGLY23258 (dimer), Table 3 experiment
Protocol: as §1, with “These dimerized F(ab′)2/antibody complexes were also serially diluted and 100 μL per well were added to the remaining receptor plates and all plates were incubated for one hour at room temperature.” left out

- fold change in affinity vs 1F11 IgG1 GS5.0 (FcγRIIA H): 1 fold
- fold change in affinity vs 1F11 IgG1 GS5.0 [1]: 1 fold
- fold change in affinity vs 1F11 IgG1 GS5.0 [2]: 1 fold
- fold change in affinity vs 1F11 IgG1 GS5.0 [3]: 1 fold
- EC50 (read off the curve) [4]: ~0.1 mg/L
- EC50 (read off the curve) [5]: ~0.02 mg/L
- EC50 (read off the curve) [6]: ~0.03 mg/L
- EC50 (read off the curve) [7]: ~0.2 mg/L
- EC50 (read off the curve) [8]: ~0.02 mg/L
- EC50 (read off the curve) [9]: ~0.06 mg/L
- EC50 (read off the curve) [10]: ~0.02 mg/L
- EC50 (read off the curve) (FcγRI (R&D Systems) [11]): ~0.08 mg/L
B1: 1F11 wildtype (parent) humanized anti-PCSK9 monoclonal IgG1 antibody (antibody)
heavy: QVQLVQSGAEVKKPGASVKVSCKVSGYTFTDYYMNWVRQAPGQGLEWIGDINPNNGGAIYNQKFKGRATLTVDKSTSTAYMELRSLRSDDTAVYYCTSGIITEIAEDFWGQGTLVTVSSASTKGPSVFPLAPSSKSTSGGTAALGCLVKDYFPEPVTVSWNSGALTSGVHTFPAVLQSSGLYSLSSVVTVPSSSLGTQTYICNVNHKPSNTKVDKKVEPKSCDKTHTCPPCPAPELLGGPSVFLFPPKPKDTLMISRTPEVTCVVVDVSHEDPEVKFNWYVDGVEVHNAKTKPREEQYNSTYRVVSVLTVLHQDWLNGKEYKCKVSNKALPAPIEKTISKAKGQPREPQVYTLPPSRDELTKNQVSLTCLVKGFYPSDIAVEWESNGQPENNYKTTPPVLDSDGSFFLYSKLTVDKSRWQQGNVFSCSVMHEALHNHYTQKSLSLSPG
light: DIQMTQSPSSLSASVGDRVTITCKASQNVGTNVVWYQQKPGKAPKALIHSASYRYSGVPSRFSGSGSGTDFTLTISSLQPEDFATYYCQQYKTYPYTFGQGTKVEIKRTVAAPSVFIFPPSDEQLKSGTASVVCLLNNFYPREAKVQWKVDNALQSGNSQESVTEQDSKDSTYSLSSTLTLSKADYEKHKVYACEVTHQGLSSPVTKSFNRGEC
notes: Produced in glycoengineered Pichia pastoris GFI5.0 (strain YGLY21351); also called 1F11 IgG1 GS5.0; YGLY21351

- decreased affinity fold vs wildtype parent antibody produced in GS 5.0 (FcγRI (R&D Systems) [12]): 4 fold
- decreased affinity fold vs wildtype parent antibody produced in GS 5.0 [13]: 8 to 60 fold
- decreased affinity fold vs wildtype parent antibody produced in GS 5.0 [14]: 2 to 6 fold
- fold change in affinity vs 1F11 IgG1 GS5.0 [15]: 3 fold
- IC50 [16]: 0.6 mg/L
B2: 1F11 IgG1 F243A/V264A double mutein anti-PCSK9 antibody (antibody)
heavy: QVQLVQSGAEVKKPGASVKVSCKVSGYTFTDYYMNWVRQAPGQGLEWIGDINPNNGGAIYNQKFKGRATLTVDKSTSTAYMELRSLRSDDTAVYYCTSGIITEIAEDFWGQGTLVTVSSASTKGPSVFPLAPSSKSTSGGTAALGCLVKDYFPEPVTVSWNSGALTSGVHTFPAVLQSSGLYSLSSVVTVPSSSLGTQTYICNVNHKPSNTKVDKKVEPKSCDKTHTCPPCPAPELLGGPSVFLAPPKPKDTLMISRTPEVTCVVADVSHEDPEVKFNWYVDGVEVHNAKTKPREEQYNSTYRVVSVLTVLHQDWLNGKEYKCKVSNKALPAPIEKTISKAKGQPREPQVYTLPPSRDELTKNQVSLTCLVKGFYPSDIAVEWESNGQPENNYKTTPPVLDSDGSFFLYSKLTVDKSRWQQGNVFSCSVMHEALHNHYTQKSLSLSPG
light: B1 light
notes: sialylated N-glycans; also called 1F11 DM; YGLY23258
